# Assay results: article PMC12192683
# Target: low-density lipoprotein receptor-related protein 1 (LRP1), full-length, purified from human placenta (human) (UniProt Q07954)
# Experiment: SPR; LRP1 amine-coupled to CM5 chip; RBD or alkylated RBD flowed in HBS-P with 1 mM CaCl2, 25 C; equilibrium analysis (Req against concentration, single class of sites) and single injections of 1 uM
# Chain of low-density lipoprotein receptor-related protein 1 (LRP1), full-length, purified from human placenta (human) (Q07954 20-4544): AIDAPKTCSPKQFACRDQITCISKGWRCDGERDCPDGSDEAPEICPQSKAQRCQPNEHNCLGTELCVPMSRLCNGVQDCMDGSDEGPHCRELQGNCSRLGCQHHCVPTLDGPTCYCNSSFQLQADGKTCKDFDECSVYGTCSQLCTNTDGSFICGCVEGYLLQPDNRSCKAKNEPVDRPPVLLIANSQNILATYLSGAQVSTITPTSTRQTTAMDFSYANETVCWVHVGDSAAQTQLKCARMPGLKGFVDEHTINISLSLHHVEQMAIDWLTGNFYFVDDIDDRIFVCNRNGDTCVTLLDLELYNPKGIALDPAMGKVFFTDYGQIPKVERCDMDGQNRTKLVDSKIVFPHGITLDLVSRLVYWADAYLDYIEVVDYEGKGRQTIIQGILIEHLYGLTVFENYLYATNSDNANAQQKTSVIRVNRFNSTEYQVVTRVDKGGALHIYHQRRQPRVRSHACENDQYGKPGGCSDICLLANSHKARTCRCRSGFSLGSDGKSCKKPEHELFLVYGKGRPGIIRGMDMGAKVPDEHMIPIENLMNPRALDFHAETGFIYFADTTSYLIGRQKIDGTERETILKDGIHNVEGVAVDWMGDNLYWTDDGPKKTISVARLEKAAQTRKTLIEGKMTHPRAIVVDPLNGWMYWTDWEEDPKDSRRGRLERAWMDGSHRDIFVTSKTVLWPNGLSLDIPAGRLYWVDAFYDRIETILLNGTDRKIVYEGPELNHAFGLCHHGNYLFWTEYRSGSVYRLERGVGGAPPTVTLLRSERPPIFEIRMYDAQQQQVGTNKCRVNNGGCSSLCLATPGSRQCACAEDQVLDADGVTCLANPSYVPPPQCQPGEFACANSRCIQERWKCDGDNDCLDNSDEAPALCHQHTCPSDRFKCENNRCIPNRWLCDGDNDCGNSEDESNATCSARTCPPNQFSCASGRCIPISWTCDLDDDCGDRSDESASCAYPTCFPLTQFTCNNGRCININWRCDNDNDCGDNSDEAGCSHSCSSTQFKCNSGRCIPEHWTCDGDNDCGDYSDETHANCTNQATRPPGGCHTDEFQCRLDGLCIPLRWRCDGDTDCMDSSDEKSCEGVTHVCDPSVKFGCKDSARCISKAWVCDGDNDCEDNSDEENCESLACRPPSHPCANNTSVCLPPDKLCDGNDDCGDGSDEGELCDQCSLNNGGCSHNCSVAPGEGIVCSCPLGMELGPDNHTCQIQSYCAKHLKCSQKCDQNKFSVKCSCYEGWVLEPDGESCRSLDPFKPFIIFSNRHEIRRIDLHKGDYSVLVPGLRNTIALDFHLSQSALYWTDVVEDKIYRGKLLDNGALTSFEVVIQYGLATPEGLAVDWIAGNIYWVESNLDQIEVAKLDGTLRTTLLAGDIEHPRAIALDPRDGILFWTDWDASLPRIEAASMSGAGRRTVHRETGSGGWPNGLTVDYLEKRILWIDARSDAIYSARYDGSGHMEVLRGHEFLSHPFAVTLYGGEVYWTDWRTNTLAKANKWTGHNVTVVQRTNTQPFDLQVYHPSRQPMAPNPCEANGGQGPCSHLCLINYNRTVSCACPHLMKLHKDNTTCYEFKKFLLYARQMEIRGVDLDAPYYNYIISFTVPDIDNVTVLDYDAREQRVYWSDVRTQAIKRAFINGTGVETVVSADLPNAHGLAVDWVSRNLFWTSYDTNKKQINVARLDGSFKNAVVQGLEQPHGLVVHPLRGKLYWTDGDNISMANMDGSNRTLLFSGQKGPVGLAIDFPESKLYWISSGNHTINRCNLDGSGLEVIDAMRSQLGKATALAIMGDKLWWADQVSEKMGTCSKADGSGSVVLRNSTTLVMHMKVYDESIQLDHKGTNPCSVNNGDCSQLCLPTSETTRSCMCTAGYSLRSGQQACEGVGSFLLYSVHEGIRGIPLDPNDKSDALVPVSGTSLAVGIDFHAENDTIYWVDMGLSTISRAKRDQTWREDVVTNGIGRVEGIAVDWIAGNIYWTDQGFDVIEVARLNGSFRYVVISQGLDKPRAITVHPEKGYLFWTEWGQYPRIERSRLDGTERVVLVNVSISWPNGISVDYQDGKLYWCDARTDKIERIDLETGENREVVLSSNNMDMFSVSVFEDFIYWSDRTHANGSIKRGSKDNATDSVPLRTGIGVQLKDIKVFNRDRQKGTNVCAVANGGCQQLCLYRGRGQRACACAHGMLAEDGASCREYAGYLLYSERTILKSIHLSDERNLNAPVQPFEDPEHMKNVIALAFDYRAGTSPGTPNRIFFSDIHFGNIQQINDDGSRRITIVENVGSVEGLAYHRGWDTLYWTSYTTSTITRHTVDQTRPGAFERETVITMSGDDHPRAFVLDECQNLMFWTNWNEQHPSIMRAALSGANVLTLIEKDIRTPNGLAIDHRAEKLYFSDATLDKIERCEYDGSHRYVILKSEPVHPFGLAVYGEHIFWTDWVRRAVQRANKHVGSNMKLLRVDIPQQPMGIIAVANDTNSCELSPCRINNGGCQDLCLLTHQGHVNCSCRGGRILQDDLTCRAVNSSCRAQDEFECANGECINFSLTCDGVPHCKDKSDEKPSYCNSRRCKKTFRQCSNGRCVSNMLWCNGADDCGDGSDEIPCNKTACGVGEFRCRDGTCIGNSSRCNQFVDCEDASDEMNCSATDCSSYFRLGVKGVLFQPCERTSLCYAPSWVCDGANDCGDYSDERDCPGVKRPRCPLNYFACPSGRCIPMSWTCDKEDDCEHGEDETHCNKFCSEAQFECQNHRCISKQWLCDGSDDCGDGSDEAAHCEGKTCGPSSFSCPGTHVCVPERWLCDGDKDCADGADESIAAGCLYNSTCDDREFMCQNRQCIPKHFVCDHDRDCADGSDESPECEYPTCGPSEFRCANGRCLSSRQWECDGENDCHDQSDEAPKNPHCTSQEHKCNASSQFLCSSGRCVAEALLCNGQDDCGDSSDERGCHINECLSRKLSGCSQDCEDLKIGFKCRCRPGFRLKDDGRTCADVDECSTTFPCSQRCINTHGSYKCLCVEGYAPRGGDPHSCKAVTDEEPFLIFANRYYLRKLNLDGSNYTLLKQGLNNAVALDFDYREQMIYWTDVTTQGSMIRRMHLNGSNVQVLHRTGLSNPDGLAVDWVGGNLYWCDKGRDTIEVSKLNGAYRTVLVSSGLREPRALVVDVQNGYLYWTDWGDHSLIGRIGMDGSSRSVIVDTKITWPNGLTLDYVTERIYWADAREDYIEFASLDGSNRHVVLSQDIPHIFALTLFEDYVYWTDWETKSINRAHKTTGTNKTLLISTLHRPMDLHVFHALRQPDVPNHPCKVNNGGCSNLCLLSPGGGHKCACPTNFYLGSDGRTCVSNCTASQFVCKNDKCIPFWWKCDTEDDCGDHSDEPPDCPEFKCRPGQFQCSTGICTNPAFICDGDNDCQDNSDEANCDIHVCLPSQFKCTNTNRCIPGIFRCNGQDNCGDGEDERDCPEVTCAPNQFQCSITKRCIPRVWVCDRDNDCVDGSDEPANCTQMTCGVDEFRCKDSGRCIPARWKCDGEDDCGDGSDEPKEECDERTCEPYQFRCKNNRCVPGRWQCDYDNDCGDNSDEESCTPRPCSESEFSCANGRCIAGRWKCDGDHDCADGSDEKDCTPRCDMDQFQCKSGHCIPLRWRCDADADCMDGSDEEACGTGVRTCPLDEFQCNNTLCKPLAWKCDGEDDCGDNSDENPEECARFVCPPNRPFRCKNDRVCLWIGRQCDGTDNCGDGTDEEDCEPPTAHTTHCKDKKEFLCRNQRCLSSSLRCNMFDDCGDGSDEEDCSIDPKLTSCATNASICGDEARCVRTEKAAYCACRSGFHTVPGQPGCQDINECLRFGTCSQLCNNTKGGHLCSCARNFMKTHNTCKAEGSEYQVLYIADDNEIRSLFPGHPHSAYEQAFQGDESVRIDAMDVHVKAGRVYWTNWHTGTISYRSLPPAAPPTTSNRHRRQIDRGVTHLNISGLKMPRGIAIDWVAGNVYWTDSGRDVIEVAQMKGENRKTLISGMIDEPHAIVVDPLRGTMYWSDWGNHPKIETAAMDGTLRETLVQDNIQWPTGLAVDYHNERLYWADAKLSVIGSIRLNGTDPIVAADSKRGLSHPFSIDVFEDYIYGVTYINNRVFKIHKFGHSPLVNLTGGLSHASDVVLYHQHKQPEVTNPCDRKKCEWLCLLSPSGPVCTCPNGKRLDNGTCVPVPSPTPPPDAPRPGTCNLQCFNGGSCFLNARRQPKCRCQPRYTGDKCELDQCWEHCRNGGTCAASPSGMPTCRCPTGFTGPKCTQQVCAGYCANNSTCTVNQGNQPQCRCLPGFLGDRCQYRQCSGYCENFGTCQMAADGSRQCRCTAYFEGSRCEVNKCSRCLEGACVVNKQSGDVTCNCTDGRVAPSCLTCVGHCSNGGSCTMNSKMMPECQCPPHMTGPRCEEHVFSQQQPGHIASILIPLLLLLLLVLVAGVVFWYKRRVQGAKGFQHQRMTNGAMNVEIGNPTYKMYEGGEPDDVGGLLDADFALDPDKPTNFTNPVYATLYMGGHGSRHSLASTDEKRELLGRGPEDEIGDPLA
substance,measurement,value
"SARS-CoV-2 spike protein receptor binding domain (Arg319-Phe541), his tagged (from UniProt P0DTC2 319-541) (domain or fragment)",Kd,192 nM
